Results published in patent US20210101970A1 (Pfizer, published 2021).

Experiments:
CXCR3 = target: T1, CXCR3 (human, UniProt P49682 1-368); assay: flow cytometry (GMFI) on fixed CXCR3 cells, chimeric antibody, goat anti-human PE
T1 construct: whole, on cells
T1 sequence (looked up): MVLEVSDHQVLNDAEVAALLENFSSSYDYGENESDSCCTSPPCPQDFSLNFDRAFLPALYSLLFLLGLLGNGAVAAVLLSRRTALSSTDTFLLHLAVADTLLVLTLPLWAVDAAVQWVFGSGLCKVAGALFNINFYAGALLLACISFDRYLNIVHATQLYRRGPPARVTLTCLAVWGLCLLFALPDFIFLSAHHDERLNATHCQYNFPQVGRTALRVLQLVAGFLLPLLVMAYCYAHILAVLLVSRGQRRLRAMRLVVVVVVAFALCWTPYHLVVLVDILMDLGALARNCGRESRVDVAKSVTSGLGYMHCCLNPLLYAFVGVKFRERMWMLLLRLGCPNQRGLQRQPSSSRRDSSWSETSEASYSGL
Experimental: (§1) To determine the specificity of the antibodies for CXCR5, the binding of the antibodies to cells expressing other […] was assessed. Briefly, FlowCellect chemokine receptor cell lines expressing CXCR1, CXCR2, or CXCR3 (EMD Millipore, Billerica, Mass.), and Jurkats (ATCC, Manassas, Va.), which express CXCR4, were stained with 5 μg/ml or 10 μg/ml of each anti-CXCR5 chimeric antibody. The cells were then incubated with goat anti-human conjugated with PE (Southern Biotech, Birmingham, Ala.) prior to analysis by flow cytometry using a FACSVerse Analyzer (BD Biosciences, Franklin Lakes, N.J.).

human CXCR5 [1] = target: T2, human CXCR5 (human, UniProt P32302 1-372); assay: flow cytometry, human PBMC B cells
T2 construct: also called hCXCR5; C-X-C chemokine receptor type 5
T2 sequence: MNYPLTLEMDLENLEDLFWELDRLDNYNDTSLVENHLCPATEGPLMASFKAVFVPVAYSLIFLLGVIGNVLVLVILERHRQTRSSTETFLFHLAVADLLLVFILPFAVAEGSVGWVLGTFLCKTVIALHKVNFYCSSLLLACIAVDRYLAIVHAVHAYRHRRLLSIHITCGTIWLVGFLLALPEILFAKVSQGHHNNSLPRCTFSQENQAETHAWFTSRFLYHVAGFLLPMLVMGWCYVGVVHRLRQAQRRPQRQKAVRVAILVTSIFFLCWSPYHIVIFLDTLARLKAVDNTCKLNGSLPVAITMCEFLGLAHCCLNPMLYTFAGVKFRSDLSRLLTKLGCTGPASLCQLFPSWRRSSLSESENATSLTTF
Experimental: (§2) The apparent affinity for cell surface CXCR5 of chimeric and humanized CXCR5 fucosylated and afucosylated antibodies was assessed. More specifically, to determine the apparent affinity of chimeric and humanized CXCR5 antibodies to CXCR5-expressing cells, cell binding experiments were performed on human and cynomolgus monkey peripheral blood mononuclear cells (PBMCs) and human tonsillar mononuclear cells (TMCs). The apparent affinity of CXCR5 mab binding to CXCR5+ cells (B cells, bona fide Tfh cells, and circulating Tfh-like cells) was calculated as the EC50 of equilibrium binding titration curves in which the geometric mean fluorescence intensity (gMFI) of the antigen binding population was quantified by flow cytometry.
(§3) Following isolation, PBMCs were plated at a density of 1.0×10⁵ cells per well and CD4+ TMCs were plated at a density of 2.0×10⁵ cells per well in isolation buffer (PBS containing 1% FBS and 1 mM EDTA) in 96 well U-bottom plates. The plates were then centrifuged at 1500 rpm for 5 minutes at room temperature. PBMCs and CD4+ TMCs were resuspended in Fluorescence-activated cell sorting (FACS) buffer (PBS containing 1% FBS) containing human crystallized fragment Fc block (2 μL per well; Biolegend) and 4-fold serial dilutions of the antibodies (11-point dilution series, beginning at 5000 ng/mL for PBMCs and 312.5 ng/mL for CD4+ TMCs) and incubated on ice for 2 hours. PBMCs and CD4+ TMCs were then washed with FACS buffer 3 times and resuspended in 50-100 μL of FACs buffer containing fluorescent-conjugated antibodies for staining lymphocyte subsets and a fluorescent-conjugated secondary antibody against human Ig to detect CXCR5 monoclonal antibodies (mAbs). After incubation for 30 minutes at 4° C., PBMCs and CD4+ TMCs were washed with FACS buffer 2 times and resuspended in 125 μL of 0.5% paraformaldehyde (PFA) in PBS. Plates were stored at 4° C. until analysis by flow cytometry (BD LSRFortessa™ Cell Analyzer, BD Biosciences, Franklin Lakes, N.J.).
(§4) The cell binding titration curves were generated by plotting the gMFI of the antigen binding population against the log of CXCR5 antibody concentration. EC₅₀ values were determined using GraphPad Prism® (version 6.0, GraphPad Software, Inc, San Diego, Calif.) nonlinear-regression curve fits and a sigmoidal log of agonist dose-response model, according to the following equation

CXCR1 = target: T3, CXCR1 (human, UniProt P25024 1-350); assay: flow cytometry (GMFI) on fixed CXCR1 cells, chimeric antibody, goat anti-human PE
T3 construct: whole, on cells
T3 sequence (looked up): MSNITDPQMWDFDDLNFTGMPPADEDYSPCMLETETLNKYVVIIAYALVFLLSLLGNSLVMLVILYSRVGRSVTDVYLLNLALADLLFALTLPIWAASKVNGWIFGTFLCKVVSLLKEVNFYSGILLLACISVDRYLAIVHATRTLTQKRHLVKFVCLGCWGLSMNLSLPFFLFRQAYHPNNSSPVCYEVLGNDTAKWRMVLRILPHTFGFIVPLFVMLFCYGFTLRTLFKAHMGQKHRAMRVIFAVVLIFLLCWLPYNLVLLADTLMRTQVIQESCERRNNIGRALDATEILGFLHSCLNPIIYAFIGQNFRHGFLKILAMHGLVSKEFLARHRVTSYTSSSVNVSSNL
Experimental: as §1

cynomolgus monkey CXCR5 [2] = target: T4, cynomolgus monkey CXCR5 (cynomolgus monkey, UniProt P32302 1-372 (human entry)); assay: flow cytometry on cynoCXCR5-300.19 cells, fucosylated chimeric antibody
T4 construct: also called cynoCXCR5; NHP CXCR5
T4 chain: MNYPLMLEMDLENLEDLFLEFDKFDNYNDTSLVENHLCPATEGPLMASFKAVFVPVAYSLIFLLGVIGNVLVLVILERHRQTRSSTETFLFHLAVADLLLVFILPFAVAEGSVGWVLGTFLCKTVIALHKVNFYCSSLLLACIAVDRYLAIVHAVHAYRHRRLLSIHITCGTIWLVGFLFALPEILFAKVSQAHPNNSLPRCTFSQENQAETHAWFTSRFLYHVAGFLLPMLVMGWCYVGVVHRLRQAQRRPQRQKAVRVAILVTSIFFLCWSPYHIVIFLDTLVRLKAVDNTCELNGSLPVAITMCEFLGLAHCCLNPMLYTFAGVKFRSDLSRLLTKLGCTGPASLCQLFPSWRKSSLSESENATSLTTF

CXCR2 = target: T5, CXCR2 (human, UniProt P25025 1-360); assay: flow cytometry (GMFI) on fixed CXCR2 cells, chimeric antibody, goat anti-human PE
T5 construct: whole, on cells
T5 sequence (looked up): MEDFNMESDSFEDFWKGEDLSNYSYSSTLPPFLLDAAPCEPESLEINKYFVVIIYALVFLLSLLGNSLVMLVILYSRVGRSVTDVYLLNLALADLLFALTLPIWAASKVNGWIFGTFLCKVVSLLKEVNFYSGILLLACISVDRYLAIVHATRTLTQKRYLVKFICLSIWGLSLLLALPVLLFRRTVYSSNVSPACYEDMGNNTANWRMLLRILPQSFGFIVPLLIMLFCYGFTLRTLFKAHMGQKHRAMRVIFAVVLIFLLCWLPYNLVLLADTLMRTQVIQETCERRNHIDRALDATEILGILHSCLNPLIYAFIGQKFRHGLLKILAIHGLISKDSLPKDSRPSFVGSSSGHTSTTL
Experimental: as §1

cynomolgus monkey CXCR5 [3] = target: T4, cynomolgus monkey CXCR5; assay: flow cytometry, cynomolgus PBMC B cells
Experimental: as §2, §3, §4

human CXCR5 [4] = target: T2, human CXCR5; assay: cell-based or functional assay
human CXCR5 [5] = target: T2, human CXCR5; assay: flow cytometry on Raji cells, fucosylated chimeric antibody
Experimental: The fucosylated chimeric antibodies were then purified using protein A columns. The apparent affinity (cell binding EC50s) of chimeric antibody binding to Raji cells was determined by flow cytometry using a FACSVerse Analyzer (BD Bioscience, Franklin Lakes, N.J.) and are shown in Table 3.

CXCR4 = target: T6, CXCR4 (human, UniProt P61073 1-352); assay: flow cytometry (GMFI) on Jurkat cells, which express CXCR4; chimeric antibody, goat anti-human PE
T6 construct: whole, on cells
T6 sequence (P61073 whole entry): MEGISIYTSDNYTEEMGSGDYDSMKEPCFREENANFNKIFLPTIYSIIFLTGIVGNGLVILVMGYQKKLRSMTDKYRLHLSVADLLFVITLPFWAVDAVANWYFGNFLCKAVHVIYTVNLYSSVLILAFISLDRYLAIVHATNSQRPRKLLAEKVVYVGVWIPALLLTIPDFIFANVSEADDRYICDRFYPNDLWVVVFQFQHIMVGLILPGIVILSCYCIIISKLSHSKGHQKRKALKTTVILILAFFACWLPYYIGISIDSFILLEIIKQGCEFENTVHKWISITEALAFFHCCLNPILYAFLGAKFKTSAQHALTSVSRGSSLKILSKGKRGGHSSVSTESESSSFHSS
Experimental: as §1

Binder | binding result (CXCR3) | EC50 (human CXCR5 [1]) [nM] | binding result (CXCR1) | EC50 (cynomolgus monkey CXCR5 [2]) [nM] | binding result (CXCR2) | EC50 (cynomolgus monkey CXCR5 [3]) [nM] | ADCC Activity Average EC50, Human B Cells (human CXCR5 [4]) [nM] | EC50 (human CXCR5 [5]) [nM] | binding result (CXCR4)
Chimeric 41A10 (antibody, human IgG1, kappa, V domains shown, mouse V regions on human IgG1/kappa; fucosylated; also called 41A10 (chimeric)) VH: EVQLVESGGDLVKPGGSLKLSCAASGFTFRSYGMSWVRQTPDKRLEWVATISSGGTYTFYPDILKGRITISRDNAKNTLYLQMSNLKSEDTAMYYCARRGEDYRGALEHWGQGTSVTVSS VL: QIVLTQSPAVMSASPGEKVTMTCSASSSVNYIHWYQQKSGTSPKRWIYETSRLASGVPVRFSGSGSGTSYSLTISTMEAEDAATYYCQQWSSNPLTFGAGTKLELKR | no binding (tested: 5 or 10 µg/ml (not on the sheet)) | 0.161 | no binding (tested: 5 or 10 µg/ml (not on the sheet)) | 0.831 | no binding (tested: 5 or 10 µg/ml (not on the sheet)) | 0.549 | 11.7 | 0.39 | 
chimeric 5H7 (antibody, human IgG1, kappa, V domains shown, mouse V regions on human IgG1/kappa; fucosylated; also called 5H7 (chimeric)) VH: EVKLVESGGGLVQPGDSLRLSCATSGFTFTDFYMSWVRQPPGRALEWLGFIRNKANGYTTEYSASVKGRFTISRDNSQSILYLQMNTLRAGDSATYYCVRVYGSTLHYWGQGTILTVSS VL: DVVVTQSPDSLAVSLGQRATISCRASESVEYHGTSLMHWYQQKPGQPPKLLIYAASNVESGVPARFSGSGSGTDFSLNIHPVEEGDVSMFFCQQSRKVPWTFGGGTKLEIKR | no binding (tested: 5 or 10 µg/ml (not on the sheet)) |  | no binding (tested: 5 or 10 µg/ml (not on the sheet)) | 0.0603 | no binding (tested: 5 or 10 µg/ml (not on the sheet)) |  |  | 0.0421 | no binding (tested: 5 or 10 µg/ml (not on the sheet))
